Experimental data: article doi:10.1101/2023.09.18.558202 (bioRxiv, 2023)

Molecular target: the molecule itself
Assay: SEC

B1: F420-dependent methylene-tetrahydromethanopterin reductase (Mer) from Methanocaldococcus jannaschii (enzyme, UniProt Q58929 1-331, looked up)
chain: MKFGIEFVPNEPIQKLCYYVKLAEDNGFEYCWITDHYNNRNVYMALTAIAMNTNKIKLGPGVTNPYVRSPAITASAIATLDELSGGRAVLGIGPGDKATFDALGIEWVKPVTTLKESIEVIRKLLAGERVSYEGKVVKIAGAALAVKPIQKAVPVYMGAQGPKMLETAGMIADGVLINASNPKDFEAAIPLIKKGAEAAGRSMDEIDVAAYACMSVDKNADKAKQAAVPVVAFIAAGSPPVVLERHGIDMEKVEAIRNALKSGNFPEAFKNVDDTMLEAFSIYGTPEDVVEKCKKLAEMGVTQIVAGSPIGPNKETAIKLIGKKVIPALKE
- stoichiometry N: 2
